Measured values as given in the supplement of paper PMC6757056.
± gives the standard deviation of the averaged measurements.

B1: library; a variant is named by its letters at N, in order (parent)
chain: GCUGUCACCGGUGCUUGGUACGUUAUAUUCAGCCGGUCUGAUGAGUCUNNNNNNAGACGAAACAGC

Key:
[1] = variants of: B1; test: FACS-Seq fitted mean relative fluorescence mCherry/BFP without ligand (log10 relative fluorescence); HEK293T overexpressing SLC46A1; higher = higher reporter protein expression; conditions: without (6R,S)-folinic acid; ligand present: no
Experimental: (§1)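 Hammerhead (sTRSV) ribozyme switch libraries with a ligand aptamer grafted on stem I and a randomized N4-6 loop II, cloned into the 3' UTR of mCherry and transiently transfected into HEK293T cells; RNA-Seq 72 h post transfection with ligand added 1 h before transfection; RNA read count / plasmid DNA read count normalized to the non-cleaving sTRSVctl (x100), log10; sequences with >100 DNA reads. FACS-Seq: lentiviral library sorted into 6 bins after 48 h ligand, log-normal fit mean of mCherry/BFP scaled to controls. Printed sequences are partial switch sequences.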

[2] = variants of: B1; test: normalized RNA/DNA level without ligand (relative to sTRSVctl = 100) (log10 (% of sTRSVctl)); HEK293T overexpressing SLC46A1; higher = less ribozyme self-cleavage, higher mRNA level; conditions: without (6R,S)-folinic acid; ligand present: no
Experimental: as §1

[3] = variants of: B1; test: FACS-Seq fitted mean relative fluorescence mCherry/BFP with ligand (log10 relative fluorescence); HEK293T overexpressing SLC46A1; ligand concentration (+) FACS-Seq: 6 mM; higher = higher reporter protein expression; conditions: with (6R,S)-folinic acid; ligand present: yes
Experimental: as §1

[4] = variants of: B1; test: normalized RNA/DNA level with ligand (relative to sTRSVctl = 100) (log10 (% of sTRSVctl)); HEK293T overexpressing SLC46A1; ligand concentration (+) RNA-Seq: 6 mM; higher = less ribozyme self-cleavage, higher mRNA level; conditions: with (6R,S)-folinic acid; ligand present: yes
Experimental: as §1

| Variant | FACS-Seq fitted mean (log10) [1] | normalized RNA/DNA level without ligand (log10) [2] | FACS-Seq fitted mean (log10) [3] | normalized RNA/DNA level with ligand (log10) [4] |
| --- | --- | --- | --- | --- |
| AACCGG | 0.00166 ± 0.089 | 2.032 ± 0.0087 | -0.0748 ± 0.11 | 2.04 ± 0.033 |
| GACGGA | 0.373 ± 0.037 | 1.991 ± 0.014 | 0.557 ± 0.19 | 2.05 ± 0.033 |
| GACGGG | 0.31 ± 0.087 | 1.99 ± 0.011 | 0.302 ± 0.24 | 2.04 ± 0.051 |
| GACGGU | 0.318 ± 0.049 | 1.994 ± 0.016 | 0.486 ± 0.32 | 2.01 ± 0.029 |
| AACUAC | 0.381 ± 0.012 | 2 ± 0.021 | 0.181 ± 0.25 | 2.005 ± 0.02 |
| CAGAGG | -0.0517 ± 0.073 | 1.9 ± 0.016 | 0.0689 ± 0.4 | 2.002 ± 0.0054 |
| AACUGA | 0.445 ± 0.11 | 2.008 ± 0.0069 | 0.455 ± 0.17 | 2.02 ± 0.038 |
| AACUGG | 0.3585 ± 0.0022 | 1.936 ± 0.013 | 0.657 ± 0.038 | 2 ± 0.07 |
| UACAGG | 0.254 ± 0.021 | 1.661 ± 0.0093 | 0.489 ± 0.051 | 1.96 ± 0.033 |
| UACAGA | 0.358 ± 0.072 | 1.913 ± 0.011 | 0.548 ± 0.15 | 1.99 ± 0.037 |
| UACAGU | 0.183 ± 0.13 | 1.92 ± 0.021 | 0.133 ± 0.26 | 1.994 ± 0.0074 |
| CACAUA | 0.25 ± 0.021 | 1.978 ± 0.0043 | 0.219 ± 0.3 | 2.02 ± 0.035 |
| AACAGU | -0.296 ± 0.34 | 1.94 ± 0.018 | 0.0957 ± 0.15 | 2.001 ± 0.0087 |
| AACAGA | 0.344 ± 0.11 | 1.964 ± 0.01 | 0.425 ± 0.04 | 2 ± 0.028 |
| AACAGG | 0.475 ± 0.12 | 1.904 ± 0.01 | 0.351 ± 0.0077 | 2 ± 0.031 |
| UAGCAU | 0.36 ± 0.07 | 1.942 ± 0.0083 | 0.328 ± 0.2 | 2 ± 0.042 |
| UAGCAG | 0.207 ± 0.14 | 1.755 ± 0.0028 | 0.401 ± 0.18 | 1.957 ± 0.019 |
| GAGCUA | 0.516 ± 0.2 | 2.0209 ± 0.0014 | 0.415 ± 0.15 | 2.04 ± 0.035 |
| GAGAAC | 0.435 ± 0.033 | 1.964 ± 0.0051 | 0.598 ± 0.32 | 2.02 ± 0.045 |
| GAGAAG | 0.0112 ± 0.083 | 1.905 ± 0.0077 | 0.219 ± 0.32 | 2.02 ± 0.029 |
| GAGAAA | 0.129 ± 0.016 | 1.958 ± 0.011 | 0.0474 ± 0.047 | 1.996 ± 0.01 |
| UACAUG | 0.195 ± 0.2 | 1.76 ± 0.0019 | 0.236 ± 0.015 | 1.97 ± 0.019 |
| UACAUA | 0.329 ± 0.1 | 1.959 ± 0.012 | 0.058 ± 0.017 | 2.002 ± 0.0044 |
| CACGAU | 0.217 ± 0.11 | 1.99 ± 0.027 | 0.334 ± 0.6 | 2.01 ± 0.021 |

| Variant | FACS-Seq fitted mean (log10) [1] | normalized RNA/DNA level without ligand (log10) [2] | FACS-Seq fitted mean (log10) [3] | normalized RNA/DNA level with ligand (log10) [4] |
| --- | --- | --- | --- | --- |
| GACCAA | 0.358 ± 0.039 | 2.0328 ± 0.00084 | 0.42 ± 0.074 | 2.03 ± 0.043 |
| UACCAC | 0.907 ± 0.028 | 1.971 ± 0.0041 | 0.651 ± 0.047 | 1.994 ± 0.012 |
| UAGAGG | 0.0109 ± 0.02 | 1.561 ± 0.013 | 0.481 ± 0.11 | 1.9 ± 0.052 |
| UAGAGC | 0.0862 ± 0.082 | 1.93 ± 0.022 | 0.445 ± 0.031 | 1.99 ± 0.048 |
| UAGAGA | 0.273 ± 0.12 | 1.807 ± 0.015 | 0.551 ± 0.33 | 1.99 ± 0.029 |
| UACGAC | -0.293 ± 0.061 | 2.013 ± 0.0052 | -0.283 ± 0.015 | 2.01 ± 0.039 |
| UACGAG | 0.31 ± 0.029 | 1.689 ± 0.014 | 0.472 ± 0.14 | 1.953 ± 0.013 |
| UACGAU | 0.175 ± 0.046 | 1.9462 ± 0.0017 | 0.146 ± 0.33 | 2.02 ± 0.023 |
| AACAUC | -0.902 ± 0.27 | 2.061 ± 0.019 | -0.887 ± 0.24 | 2.06 ± 0.065 |
| AACAUG | 0.494 ± 0.1 | 1.96 ± 0.0024 | 0.6524 ± 0.0008 | 2.02 ± 0.022 |
| AACAUA | 0.204 ± 0.049 | 1.975 ± 0.0044 | 0.324 ± 0.15 | 1.99 ± 0.033 |
| CAGACA | 0.583 ± 0.12 | 2.017 ± 0.00058 | 0.769 ± 0.2 | 1.98 ± 0.02 |
| CAGACC | 0.131 ± 0.097 | 2.04 ± 0.012 | 0.261 ± 0.16 | 1.99 ± 0.031 |
| CAGAAA | 0.257 ± 0.038 | 1.944 ± 0.0067 | 0.441 ± 0.2 | 1.97 ± 0.043 |
| CAGAAU | 0.372 ± 0.044 | 1.921 ± 0.0042 | 0.495 ± 0.24 | 1.951 ± 0.0096 |
| AACUUG | 0.321 ± 0.0087 | 1.94 ± 0.0095 | 0.658 ± 0.031 | 1.996 ± 0.0088 |
| AACUUA | 0.0993 ± 0.1 | 1.96 ± 0.032 | 0.0419 ± 0.12 | 1.98 ± 0.033 |
| GAGACU | 0.361 ± 0.041 | 2.022 ± 0.0074 | 0.232 ± 0.024 | 2.02 ± 0.022 |
| AAGGAU | 0.466 ± 0.0051 | 1.917 ± 0.0072 | 0.53 ± 0.073 | 1.966 ± 0.013 |
| AAGGAG | 0.211 ± 0.081 | 1.789 ± 0.017 | 0.263 ± 0.14 | 2 ± 0.046 |
| AAGGAA | 0.513 ± 0.14 | 1.937 ± 0.01 | 0.429 ± 0.1 | 2 ± 0.023 |
| UAGGAC | 0.556 ± 0.12 | 1.982 ± 0.019 | 0.551 ± 0.11 | 2 ± 0.025 |
| UAGGAA | 0.503 ± 0.15 | 1.884 ± 0.01 | 0.822 ± 0.011 | 1.98 ± 0.038 |
| GACUAG | 0.271 ± 0.048 | 1.934 ± 0.019 | 0.493 ± 0.089 | 2 ± 0.033 |

| Variant | FACS-Seq fitted mean (log10) [1] | normalized RNA/DNA level without ligand (log10) [2] | FACS-Seq fitted mean (log10) [3] | normalized RNA/DNA level with ligand (log10) [4] |
| --- | --- | --- | --- | --- |
| GACUAC | 0.495 ± 0.024 | 2.041 ± 0.011 | 0.191 ± 0.19 | 2.066 ± 0.016 |
| GACUAU | 0.375 ± 0.083 | 1.9961 ± 0.00078 | 0.557 ± 0.24 | 2.002 ± 0.0044 |
| CAGCCU | 0.13 ± 0.12 | 2.052 ± 0.016 | -0.235 ± 0.22 | 2.05 ± 0.061 |
| UAGCGG | -0.127 ± 0.027 | 1.671 ± 0.0027 | 0.217 ± 0.06 | 1.96 ± 0.023 |
| AACCUA | -0.147 ± 0.17 | 2.0051 ± 8.4e-05 | -0.514 ± 0.18 | 2.02 ± 0.034 |
| AACCUU | 0.578 ± 0.19 | 2.044 ± 0.0052 | 0.59 ± 0.22 | 2.042 ± 0.02 |
| AACCAA | 0.377 ± 0.016 | 1.989 ± 0.0067 | 0.433 ± 0.11 | 2 ± 0.028 |
| AACCAG | 0.421 ± 0.13 | 1.966 ± 0.015 | 0.407 ± 0.2 | 2.0092 ± 0.00083 |
| AACCAU | 0.386 ± 0.012 | 1.976 ± 0.014 | 0.303 ± 0.018 | 2 ± 0.057 |
| GAGCAU | 0.407 ± 0.06 | 1.979 ± 0.015 | 0.546 ± 0.41 | 2.016 ± 0.015 |
| GAGCAC | 0.00982 ± 0.061 | 2.002 ± 0.02 | -0.159 ± 0.38 | 2.042 ± 0.0057 |
| GAGCAG | 0.523 ± 0.06 | 1.96 ± 0.004 | 0.688 ± 0.3 | 2.02 ± 0.058 |
| CACGCA | 0.164 ± 0.12 | 2.025 ± 0.013 | 0.119 ± 0.063 | 2.024 ± 0.011 |
| UACACA | 0.187 ± 0.0057 | 1.974 ± 0.012 | -0.044 ± 0.049 | 1.9892 ± 0.0017 |
| UACACG | 0.231 ± 0.14 | 1.808 ± 0.0037 | 0.348 ± 0.022 | 1.95 ± 0.053 |
| AAGAAA | 0.107 ± 0.0018 | 1.935 ± 0.0037 | 0.0952 ± 0.071 | 1.99 ± 0.021 |
| AAGAAG | 0.22 ± 0.028 | 1.8593 ± 0.00099 | 0.315 ± 0.053 | 2 ± 0.052 |
| AAGAAC | 0.369 ± 0.066 | 1.985 ± 0.012 | 0.624 ± 0.1 | 2 ± 0.038 |
| UACCCG | 0.166 ± 0.063 | 1.92 ± 0.03 | 0.279 ± 0.24 | 1.977 ± 0.0043 |
| GACUCC | 0.513 ± 0.089 | 2.053 ± 0.012 | 0.583 ± 0.11 | 2.06 ± 0.013 |
| AACUCG | 0.22 ± 0.034 | 1.998 ± 0.014 | 0.302 ± 0.52 | 1.99 ± 0.026 |
| CACACU | 0.136 ± 0.099 | 2.008 ± 0.011 | 0.187 ± 0.057 | 2.03 ± 0.011 |
| UACCGA | 0.3629 ± 0.0013 | 1.9669 ± 0.00083 | 0.4406 ± 0.0022 | 2.04 ± 0.048 |
